Assay results as given in the RNAGym collection of RNA variant scans (doi:10.1073/pnas.2313332121).

B1: TPR t1 (parent)
chain: GACCAAUCUGCCCUCAGAGCUCGAGAACAUCUUCGGAUGCAGAGGAGGCAGGCUUCGGUGGCGCGAUAGCGCCAACGUCCUCAACCUCCAAUGCAUCCCACCACAUGAUGAUGCCUGAAGAGCCUUGGUUUUUUG

Variants of: B1
Test: polymerase ribozyme fitness, log enrichment relative to wild type (log ratio); higher = more active; in vitro selection for triplet polymerase activity
Summary of the method: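 Fitness compares each genotype's enrichment to that of the wild type on a logarithmic scale, averaging replicates with inverse-variance weights. The logarithm is base 2. Enrichment came from Illumina sequencing of input and output libraries after one triplicate round of in vitro selection, which included frozen incubation at −7 °C, of PCR-built, transcribed mutant libraries of each subunit of a heterodimeric triplet polymerase ribozyme. Only genotypes with ≥10 input reads and ≥1 read per output were kept.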

Row | Variant | polymerase ribozyme fitness (log ratio)
1 | A18C C40U A41G C56G | -3.24
2 | A16C G58C | -2.65
3 | C15U G69C C73G C94A A111C | -6.09
4 | A16U G77A G117U | -3.13
5 | C15U G63C U129C | -2
6 | A18G C72G A84G U92A C115A | -5.47
7 | G17U C115G | -0.423
8 | A16G C40A C49G | -3.32
9 | G17C G48A C80U A83C A95G C123G | -6.14
10 | G17A C123U | -2.01
11 | A16G A68G | -4.75
12 | G17C C98U C102A A111G A121G G122A | -6.68
13 | G17U A121G | 0.688
14 | A18C A83C A91G A111C | -3.03
15 | C15U U54C C72U | -1.39
16 | A16U C82U | -2.17
17 | G17A G36U | -3.69
18 | A16U C72G | -1.5
19 | A16U G58A C72U | -1.69
20 | A16U U116G | 0.557
21 | G17C G25U C34U G69U U112G | -7.59
22 | A18C G63A U92G U112C G117A | -4.55
23 | A18G C124U | -0.797
24 | A18G C70U C82A | -6.34

Row | Variant | polymerase ribozyme fitness (log ratio)
25 | G17A C88U U133A | -3.95
26 | A18C C56G | -2.15
27 | A16U C62U C94U | -1.79
28 | G17U G52C A74U G77U C123U | -2.34
29 | G17A C124G | 0.0623
30 | G17A C124U | -1.79
31 | G17U U55A | -2.43
32 | A16C C124A | 0.87
33 | A16C G52C C62U | -3.32
34 | A16U C89A | -2.6
35 | G17A G69C U112A | -4.29
36 | A18U C85U C94G | -5.59
37 | C15U G61U | -0.638
38 | C15U G61C | -2.32
39 | A16U G63C G120U U125C | -0.937
40 | G17U A27U C40A C64A C85A G117C G127A U129A | -6.49
41 | A18C C49A U78G C114U | -4.02
42 | A16G A43G C124U U125A | -1.48
43 | A16C G57U G71U U87A G127C | -6.26
44 | A16C A46U G117A U133G | -6.47
45 | A18U C22G G58U U59G U87G | -4.24
46 | G17U C34G A50G | -7.24
47 | A18C U32C A37U A50U G60A G113A | -5.4
48 | A16G U81A | -2.36

Row | Variant | polymerase ribozyme fitness (log ratio)
49 | A18C G47U A111U U129G | -7.66
50 | G17A G61A C73U A75C | -3.99
51 | A16C G44U U78C | -4.35
52 | G17A A37U U54C C70U | -4.08
53 | A18C C56G U59A A100U A111G G127C | -3.88
54 | A18C U109A | -5.77
55 | A18U C72U C97U | -3.15
56 | A18C G42U G69C | -3.2
57 | A16U U59A C124A | 1.46
58 | A18G A68G U116G C123U | -5.7
59 | A16C C53G G63U U132C | -4
60 | A18G C80U | -3.36
61 | A18U C98U A111C | -4.18
62 | G17U G45U G61U U81A | -3.74
63 | C15U G63A C79A U112G | -5.66
64 | A16U U21C G60A G71U U112G G113A | -5.57
65 | A16U G52U G69A C76U U78C A121C | -3.43
66 | A18G G117C | -3.04
67 | A18C C104U C123G | 0.269
68 | A16U A46U C49A | -2.45
69 | G17U G42U G128A | -5.51
70 | A18U A46U | -3.64
71 | A16U G61A U81A C88G | -3.75
72 | G17A G77U U78A A118U | -4.97

Row | Variant | polymerase ribozyme fitness (log ratio)
73 | A16U G17C C123U U126C | -2.6
74 | A18U C85G | -3.16
75 | G17U U55A G77C C86G C124U | -3.47
76 | C15U G63A C73U A90C G110U | -5.03
77 | A16G G93A G120A G122U U130G | -3.58
78 | A18C A37C U112C | -1.3
79 | A18C G45U | -3.69
80 | A18U C72G C115U G128A | -4.57
81 | A16G C22U G45U C64G C86G A121C | -7.27
82 | G17C A37U C64U U92A | -5.44
83 | A18U A43U | -1
84 | A18C C88U A90G C114G | -0.417
85 | A18U A41G U106A C124G | -1.51
86 | G17U C49G C64U U131C | -2.89
87 | A18U C94G A121C U126G | -5.02
88 | A18C C88U A95G | -2.41
89 | A18C G39C A41U G60C C123U | -4.26
90 | A18C G113U | -4.82
91 | A18G U78A C86A C97A C102U U109A G113C | -6.86
92 | A18G A43U G71U U87C | -4.47
93 | A18C G42U U54C C82G | -2.51
94 | G17U A29U C72U | -4.39
95 | C15U G61A C89A A111U | -6.53
96 | A16U C72G G122A | -2.16

Row | Variant | polymerase ribozyme fitness (log ratio)
97 | G17U C64U U78C | -3.17
98 | G17U U38A G61U U125A | -3.94
99 | C15U G63U U78A G127C | -4.1
100 | G17U G47A G71C | -3.03
101 | G17U G47A G71U | -3.24
102 | A16C C56G | -2.73
103 | A16C C56U | -2
104 | A16C C56A | -2.44
105 | G17A C40A A43U | -5.48
106 | A18U A41C | -2.34
107 | A18C C115G A119G | 1.41
108 | C15U G52A G58A C88U C115U | -4.34
109 | C15U G71C C80G | -6.22
110 | A16G G48A G110A | -2.05
111 | G17U A68G C73G U112C | -5.21
112 | A18C C20U | -1.33
113 | A16C C62G A74G C114U | -5.78
114 | A16U G39U | -3.47
115 | C15U U32C C89A A119G G128C | -3.29
116 | A18U A41U C114U C115G U116G A121G G122U | -3.05
117 | A16U U32C U38G G71A C114G A121U U133A | -6.3
118 | A16U A37C C53A A91G U112A | -1.42
119 | A18G G36C G45U U112A | -2.4
120 | G17A G47U | -4.84

Row | Variant | polymerase ribozyme fitness (log ratio)
121 | A16U G42C A43G G45U C73A U129A | -3.44
122 | G17C U21A G39A U112C C115A | -1.1
123 | A18U A29U U54G C89G C114G | -3.41
124 | G17A G39U C49G U78C G117U | -5.4
125 | A16U C104U | -1.25
126 | A16G C124U | 0.601
127 | C15U G61C U125A | -2.92
128 | A16U G117C G120A | -4.52
129 | A18C A27G A43U G44U G61A | -4.83
130 | C15U G71A C102A | -5.13
131 | A16G G44U G113C A119C G135A | -6.45
132 | A16U G47U G52U G65U C115U G117C | -6.26
133 | G17A C53U U54A C64U U92G | -4.58
134 | A18U C20A C97G U109A U116A | -5.44
135 | A18C C20U A84C U96C G117U G127A | -5.53
136 | A16G G69C A91U G113U | -3.01
137 | A16G C76G G117A C123G G135U | -1.57
138 | A18U C76A | -3.36
139 | A18G C22A G42C U54G G63C U112G | -5.39
140 | C15U U54C C73U G113A C124G | -0.579
141 | A16G G93A U109G | -5.43
142 | A18C G42A G44U C53G G93A | -4.64
143 | G17A G61U | -2.6
144 | G17A G61A | -2.34

Row | Variant | polymerase ribozyme fitness (log ratio)
145 | G17C U54G C124U | -2.64
146 | A16C U38G A46U C56A U59A U87G | -4.62
147 | A18C G63A U78G | -5.52
148 | A16U C49A G63C | -1.43
149 | A18G U81C C89U | -4.16
150 | G17U G52U C62A C70U | -4.32
151 | G17U A27U G42A A43U C85U C124A U133A | -5.61
152 | A18G C20A C79U G117C | -3.24
153 | G17A G48A C102A A119U C123A | -6.09
154 | G17C A90C A121C | -1.46
155 | G17A A66G | -4.85
156 | A16G C49G C56G | -4.65
157 | G17U C31U C64G G93U C123A U130A | -5.64
158 | A16U C49A G69U | -1.01
159 | G17U C34G A68U C72G C85A C123A | -7.76
160 | A18U A43C C49U | -3.92
161 | A18C G58U G69C C89U U106A G110U | -4.7
162 | A16C C49A C94A C124A | -0.594
163 | A16C C56U G69U G120A | -3.38
164 | A16U G23A G36U A46C G47C C73A C114U U129G U132A | -7.62
165 | A18G A121U | -1.13
166 | A18U A43U C101G | -3.57
167 | A18U A43C A121C | -0.924
